Results on 3 molecules are retold here after publication PMC6778065, “BIN1 recovers tauopathy-induced long-term memory deficits in mice and interacts with Tau through Thr^348 phosphorylation” (Acta Neuropathologica, 2019).

Square brackets hold non-standard residues; d marks the D form. Ends that are not written are not given here. pT = C[C@@H](OP(=O)(O)O)[C@H](N)C(=O)O

In experiment [1] the target is T1, human Tau (MAPT transgene, hTau mouse hippocampus) (human, UniProt P10636-8 1-441).
T1 construct: human Tau from the human MAPT transgene Tg(MAPT)8cPdav; source: transgenic mouse (hTau; hTau;TgBIN1; no endogenous murine Mapt), hippocampus, fixed brain slices
Description: proximity ligation; PLA in fixed hippocampal brain slices of 18-month-old control, hTau and hTau;TgBIN1 mice; primary antibodies BIN1-99D or α-tubulin DM1A (mouse) and Tau (rabbit); PLA spot density per tissue area. The note with it: partners not purified.

The next experiment addresses T2, BIN1-SH3 domain (UniProt O00499 520-593).
T2 construct: SH3 domain of BIN1 (Amphiphysin 2); residue 559 lies in it (isoform 1 numbering); 15N-labelled for NMR; also called 15N-BIN1 SH3
T2 sequence (looked up): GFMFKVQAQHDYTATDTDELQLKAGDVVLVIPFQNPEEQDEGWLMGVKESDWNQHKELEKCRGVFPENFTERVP
Description: NMR titration; 100 µM 15N-labeled BIN1-SH3 domain titrated with aliquots of 4 mM unlabeled peptide; 1H-15N HSQC chemical shift changes fitted to the saturation equation; 20 °C, 50 mM sodium phosphate pH 7.3, 30 mM NaCl, 3 mM DTT, 10% D2O. As to conditions: both partners purified.

By Kd is commonly meant the free concentration of one partner at which half of the binding sites on the other are occupied at equilibrium, for simple one-to-one binding.

T1 sequence (P10636 other isoform, or with tags, fused parts or gaps): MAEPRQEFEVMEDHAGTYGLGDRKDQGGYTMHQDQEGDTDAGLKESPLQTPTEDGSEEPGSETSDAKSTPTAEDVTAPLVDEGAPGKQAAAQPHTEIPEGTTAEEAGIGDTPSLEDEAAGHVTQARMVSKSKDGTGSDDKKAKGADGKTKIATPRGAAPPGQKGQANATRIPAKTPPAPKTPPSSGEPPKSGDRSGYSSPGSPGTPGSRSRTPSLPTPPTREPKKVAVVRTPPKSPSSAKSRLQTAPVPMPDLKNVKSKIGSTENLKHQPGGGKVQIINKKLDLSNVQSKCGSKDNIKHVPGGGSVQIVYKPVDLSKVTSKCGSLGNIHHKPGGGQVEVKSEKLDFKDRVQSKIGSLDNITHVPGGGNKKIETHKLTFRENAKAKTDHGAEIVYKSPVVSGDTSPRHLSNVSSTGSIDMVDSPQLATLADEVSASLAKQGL

B1: human BIN1 (transgene, hTau;TgBIN1 mouse hippocampus) (natural protein, UniProt O00499 1-593, looked up)
chain: MAEMGSKGVTAGKIASNVQKKLTRAQEKVLQKLGKADETKDEQFEQCVQNFNKQLTEGTRLQKDLRTYLASVKAMHEASKKLNECLQEVYEPDWPGRDEANKIAENNDLLWMDYHQKLVDQALLTMDTYLGQFPDIKSRIAKRGRKLVDYDSARHHYESLQTAKKKDEAKIAKPVSLLEKAAPQWCQGKLQAHLVAQTNLLRNQAEEELIKAQKVFEEMNVDLQEELPSLWNSRVGFYVNTFQSIAGLEENFHKEMSKLNQNLNDVLVGLEKQHGSNTFTVKAQPSDNAPAKGNKSPSPPDGSPAATPEIRVNHEPEPAGGATPGATLPKSPSQLRKGPPVPPPPKHTPSKEVKQEQILSLFEDTFVPEISVTTPSQFEAPGPFSEQASLLDLDFDPLPPVTSPVKAPTPSGQSIPWDLWEPTESPAGSLPSGEPSAAEGTFAVSWPSQTAEPGPAQPAEASEVAGGTQPAAGAQEPGETAASEAASSSLPAVVVETFPATVNGTVEGGSGAGRLDLPPGFMFKVQAQHDYTATDTDELQLKAGDVVLVIPFQNPEEQDEGWLMGVKESDWNQHKELEKCRGVFPENFTERVP
notes: human BIN1 expressed under the control of its own promoter; endogenous mouse Bin1 is present in the same tissue; also called hBIN1; Amphiphysin 2; source: transgenic mouse (hTau;TgBIN1), hippocampus, fixed brain slices
For the molecule B1, in experiment [1], the “fold PLA spot density against control mice” value was 6.2 fold and the “fold PLA spot density against hTau mice” value stood at 2.7 fold.

B2: CLAP (334-355) peptide (peptide)
peptide: QLRKGPPVPPPPKHTPSKEVKQ
notes: residues 334-355 of the CLAP domain of BIN1 isoform 1 (neuronal isoform); unlabeled peptide, 4 mM stock solution
For the molecule B2, the Kd with BIN1-SH3 domain was 71 ± 13 µM.

B3: phospho-T348 CLAP (334-355) peptide (peptide)
peptide: QLRKGPPVPPPPKH[pT]PSKEVKQ
notes: residues 334-355 of the CLAP domain of BIN1 isoform 1 (neuronal isoform), phosphorylated on T348; unlabeled peptide, 4 mM stock solution; also called phospho-CLAP (334-355)
Turning to B3, in the experiment with BIN1-SH3 domain, the Kd was found to be 736 ± 70 µM.
